Test results from PMC5405865.

Legend:
[1] = target: The RNCs, denoted FLN5+L (with L = 21 to 110); test: co-purification with the RNC, western blot
[2] = target: 70S ribosomes; test: NMR titration

| Substance | occupancy of the purified RNCs [1] [%] | reduction in resonance intensities with equimolar 70S ribosomes [2] [%] |
| --- | --- | --- |
| DnaK (from UniProt P0A6Y8 1-638) (natural protein) | < 1.5 |  |
| FLN5 Y719E, isolated unfolded variant of FLN5 (from UniProt P13466 646-750) (domain or fragment) |  | 30 |
| FLN5∆12, 12-residue C-terminal truncation of isolated FLN5 (from UniProt P13466 646-738) (domain or fragment) |  | 30 |
| trigger factor (from UniProt P0A850 1-432) (natural protein) | < 1.5 |  |
